Experimental data published in paper PMC9474506.

Tests used:
[1] = molecular target: Flag-tagged PU.1 F203Y (human) (UniProt P17947)
[2] = molecular target: Flag-tagged PU.1 Y252N (human) (UniProt P17947)
[3] = molecular target: Flag-tagged PU.1 wild-type (human) (UniProt P17947)
[4] = molecular target: Flag-tagged PU.1 Q202L (human) (UniProt P17947)

luciferase activity of the human M-CSFR promoter reporter, F9 cells, PU.1 mutant co-transfected with c-Jun, fold activation [1]: 5 fold
luciferase activity of the human M-CSFR promoter reporter, F9 cells, PU.1 mutant co-transfected with c-Jun, fold activation [2]: 3.5 fold
luciferase activity of the human M-CSFR promoter reporter, F9 cells (no endogenous c-Jun), PU.1 co-transfected with c-Jun, fold activation [3]: 25 fold
luciferase activity of the human M-CSFR promoter reporter, F9 cells, PU.1 mutant co-transfected with c-Jun, fold activation [4]: 5 fold
Substance: myc-tagged c-Jun (from UniProt P05412 1-331) (natural protein)
